Data: patent US20240279344A1 (CDR LIFE, published 2024)
Numbering of substitutions follows the chain as printed. Where “and” joins values, the source holds several entries; their conditions need not be identical. Identical values can stand only once. One block for each binder: values may come before it.

Molecular target: T1, HLA-A2/MAGE-A4 complex, recombinant (HLA-A*02:01 extracellular domain, human b2m, MAGE-A4 peptide 230-239 …) (human, UniProt P04439 25-299 at identity 0.94); P61769 21-119)
T1 construct: also called MAGE-A4 pMHC; MAGE-A4/HLA-A2 complex
Assay: SPR, monovalent

B1: M1116 (bispecific antibody, V domains shown)
VH: EVQLLESGGGSVQPGGSLRLSCTVSGFSLSNYAMSWVRQAPGKGLEWIGIVSSGGTTYYASWAKGRFTISKDTSKNTVYLQMNSLRAEDTASYYCAKDLYYGPTTYSAANLWGQGTSVTVSS
VL: SYELTQPPSVSVSPGQTASITCTADTLSRSYASWYQQKPGQSPVLVIYRDTSRPSGIPERFSGSNSGNTATLTISGTQAMDEADYYCATRPSSGSNFQLFGGGTKLTVL
notes: Variant of humanized M0763; tested in SPR as anti-CD3 Fab x anti-MAGE-A4 scFv bispecific
Kd: 3.88 nM

B3: M1105 (bispecific antibody, V domains shown)
VH: B1 VH with D98A, A109F
VL: B1 VL
notes: as for B1
Kd: 4.12 nM

B4: M1051 (bispecific antibody, V domains shown)
VH: B1 VH with V2S, L4V, W47Y, T56R, T57K, Y58R, A109F
VL: B1 VL with R90S, P91D, S92G
notes: as for B1
Kd: 5 nM

B5: M1112 (bispecific antibody, V domains shown)
VH: B1 VH with T105A, A109F
VL: B1 VL
notes: as for B1
Kd: 35.9 nM

B6: M1109 (bispecific antibody, V domains shown)
VH: B1 VH with G102A, A109F
VL: B1 VL
notes: as for B1
Kd: 11.7 nM

B7: M1121 (bispecific antibody, V domains shown)
VH: B1 VH with A109F
VL: B1 VL with R90A
notes: as for B1
Kd: 6.53 nM

B10: M1086 (bispecific antibody, V domains shown)
VH: B1 VH with A109F
VL: B1 VL with R90S
notes: as for B1
Kd: 7.02 nM

B11: M1088 (bispecific antibody, V domains shown)
VH: B1 VH with A109F
VL: B1 VL with S92G
notes: as for B1
Kd: 3.9 nM

B19: M1138 (bispecific antibody, V domains shown)
VH: B1 VH with Y58A, A109F
VL: B1 VL
notes: as for B1
Kd: 3.1 nM

B20: M1137 (bispecific antibody, V domains shown)
VH: B1 VH with T57A, A109F
VL: B1 VL
notes: as for B1
Kd: 2.2 nM

B21: M1089 (bispecific antibody, V domains shown)
VH: B1 VH with A109F
VL: B1 VL with S92A
notes: as for B1
Kd: 1.34 nM and 0.79 nM

B22: M1038 (bispecific antibody, V domains shown)
VH: B1 VH with V2S, L4V, W47Y, D98N, L99V, A109F
VL: B1 VL with R90S, P91D, S92G
notes: as for B1
Kd: 3.6 nM

B26: M1136 (bispecific antibody, V domains shown)
VH: B1 VH with T56A, A109F
VL: B1 VL
notes: as for B1
Kd: 2.7 nM

B29: M1096 (bispecific antibody, V domains shown)
VH: B1 VH with Y106Q, A109F
VL: B1 VL
notes: as for B1
Kd: 3.23 nM

B32: M1113 (bispecific antibody, V domains shown)
VH: B1 VH with Y106A, A109F
VL: B1 VL
notes: as for B1
Kd: 15.3 nM

B34: M1131 (bispecific antibody, V domains shown)
VH: B1 VH with V51A, A109F
VL: B1 VL
notes: as for B1
Kd: 3.2 nM

B35: M1036 (bispecific antibody, V domains shown)
VH: B1 VH with V2S, L4V, W47Y, Y106Q, A109F
VL: B1 VL with R90S, P91D, S92G
notes: as for B1
Kd: 4.9 nM

B36: M1108 (bispecific antibody, V domains shown)
VH: B1 VH with Y101A, A109F
VL: B1 VL
notes: as for B1
Kd: 19 nM

B37: M1130 (bispecific antibody, V domains shown)
VH: B1 VH with I50A, A109F
VL: B1 VL
notes: as for B1
Kd: 2.2 nM

B39: M1117 (bispecific antibody, V domains shown)
VH: B1 VH with A109F, N110A
VL: B1 VL
notes: as for B1
Kd: 4.2 nM

B40: M1110 (bispecific antibody, V domains shown)
VH: B1 VH with P103A, A109F
VL: B1 VL
notes: as for B1
Kd: 9.65 nM

B41: M1134 (bispecific antibody, V domains shown)
VH: B1 VH with G54A, A109F
VL: B1 VL
notes: as for B1
Kd: 4.2 nM

B43: M1135 (bispecific antibody, V domains shown)
VH: B1 VH with G55A, A109F
VL: B1 VL
notes: as for B1
Kd: 2.4 nM

B44: M1133 (bispecific antibody, V domains shown)
VH: B1 VH with S53A, A109F
VL: B1 VL
notes: as for B1
Kd: 12.4 nM

B45: M1132 (bispecific antibody, V domains shown)
VH: B1 VH with S52A, A109F
VL: B1 VL
notes: as for B1
Kd: 4.1 nM

The remaining lines, values ahead:

Kd: 1.21 nM
B2: M1120 (bispecific antibody, V domains shown)
VH: B1 VH with A109F
VL: B1 VL with T89A
notes: as for B1

Kd: 0.66 nM
B8: M1100 (bispecific antibody, V domains shown)
VH: B1 VH with S107H, A108D, A109L
VL: B1 VL
notes: as for B1

Kd: 0.75 nM
B9: M1122 (bispecific antibody, V domains shown)
VH: B1 VH with A109F
VL: B1 VL with P91A
notes: as for B1

Kd: 0.45 nM
B12: M1040 (bispecific antibody, V domains shown)
VH: B1 VH with V2S, L4V, W47Y, S107H, A108Q, A109L
VL: B1 VL with R90S, P91D, S92G
notes: as for B1

Kd: 0.89 nM
B13: M1127 (bispecific antibody, V domains shown)
VH: B1 VH with A109F
VL: B1 VL with F97A
notes: as for B1

Kd: 0.65 nM
B14: M1111 (bispecific antibody, V domains shown)
VH: B1 VH with T104A, A109F
VL: B1 VL
notes: as for B1

Kd: 1.32 nM
B15: M1128 (bispecific antibody, V domains shown)
VH: B1 VH with A109F
VL: B1 VL with Q98A
notes: as for B1

Kd: 0.82 nM
B16: M1087 (bispecific antibody, V domains shown)
VH: B1 VH with A109F
VL: B1 VL with P91D
notes: as for B1

Kd: 0.46 nM
B17: M1129 (bispecific antibody, V domains shown)
VH: B1 VH with A109F
VL: B1 VL with L99A
notes: as for B1

Kd: 1.45 nM
B18: M1107 (bispecific antibody, V domains shown)
VH: B1 VH with Y100A, A109F
VL: B1 VL
notes: as for B1

Kd: 0.91 nM
B23: M1119 (bispecific antibody, V domains shown)
VH: B1 VH with A109F
VL: B1 VL with A88S
notes: as for B1

Kd: 1.18 nM
B24: M1114 (bispecific antibody, V domains shown)
VH: B1 VH with S107A, A109F
VL: B1 VL
notes: as for B1

Kd: 1.8 nM
B25: M1090 (bispecific antibody, V domains shown)
VH: B1 VH with A109F
VL: B1 VL with R90K
notes: as for B1

Kd: 0.65 nM
B27: M1124 (bispecific antibody, V domains shown)
VH: B1 VH with A109F
VL: B1 VL with G94A
notes: as for B1

Kd: 1.73 nM
B28: M1098 (bispecific antibody, V domains shown)
VH: B1 VH with D98N, L99V, Y106Q, A109F
VL: B1 VL
notes: as for B1

Kd: 1.69 nM
B30: M1101 (bispecific antibody, V domains shown)
VH: B1 VH with T56R, T57K, Y58R, A109F
VL: B1 VL
notes: as for B1

Kd: 2.13 nM
B31: M1099 (bispecific antibody, V domains shown)
VH: B1 VH with D98N, L99V, Y106Q, A109F
VL: B1 VL with R90S, P91D, S92G
notes: as for B1

Kd: 0.79 nM
B33: M1123 (bispecific antibody, V domains shown)
VH: B1 VH with A109F
VL: B1 VL with S93A
notes: as for B1

Kd: 0.4 nM
B38: M1037 (bispecific antibody, V domains shown)
VH: B1 VH with V2S, L4V, W47Y, S107H, A108D, A109L
VL: B1 VL with R90S, P91D, S92G
notes: as for B1

Kd: 0.24 nM
B42: M1041 (bispecific antibody, V domains shown)
VH: B1 VH with V2S, L4V, W47Y, A109F
VL: B1 VL
notes: as for B1

Kd: 0.48 nM
B46: M1115 (bispecific antibody, V domains shown)
VH: B1 VH with A108S, A109F
VL: B1 VL
notes: as for B1

Kd: 0.89 nM
B47: M1125 (bispecific antibody, V domains shown)
VH: B1 VH with A109F
VL: B1 VL with S95A
notes: as for B1

Kd: 0.99 nM
B48: M1097 (bispecific antibody, V domains shown)
VH: B1 VH with D98N, L99V, A109F
VL: B1 VL
notes: as for B1
